Experimental data taken from patent US20230374088A1.

Target: mNeonGreen-tagged full length Gli2 (human) (UniProt P10070)
Assay: cell-based or functional assay

Substance: mRuby-tagged Kif7-CC (460-600aa) with ER localization signal (from UniProt Q2M1P5 460-600)
- amount of Gli2 in the nucleus as a percentage of total Gli expression (mNeonGreen intensity), HeLa cells: < 25%
